This note sets out measurements from US20190249188A1 (WHITEHEAD INSTITUTE FOR BIOMEDICAL RESEARCH, published 2019).

This data set concerns the molecule itself. As to the kind of experiment: X-ray crystallography, BAR/acetyl-CoA and BAR/CoA/phosphinothricin complexes. Here is the method: BAR protein was incubated with 1 mM acetyl-CoA for >2 hour prior to setting crystal trays. Crystals of BAR were obtained after 3 days at 20° C. in hanging drops containing 1 μL of protein solution (7.5 mg/ml) and 1 μL of reservoir solution (0.18 M calcium acetate, 0.1 M Tris-HCl pH 7, 18% (w/v) PEG 3000, 0.2% N-nonyl β-D-glucopyranoside, 1 mM acetyl-CoA). Several crystals were soaked in reservoir solution supplemented with 30 mM L-phosphinothricin for 30-60 min before freezing. Crystals were frozen in reservoir solution supplemented with 15% ethylene glycol. […] Co-crystallization screens and soaking experiments were performed using aminoadipate and tryptophan at final concentrations between 5-30 mM. However, we could not identify electron density supporting the presence of these substrates within the resolved crystal structures.
X-ray diffraction data were collected on the 24-ID-C beam line of the Structural Biology Center at the Advanced Photon Source (Argonne National Laboratory) equipped with a Pixel Array Detector (Pilatus-6MF). […] Initial phases were determined by molecular replacement using Phaser under Phenix (Adams, P. D. et al., Acta Crystallographica. Section D, Biological Crystallo. 66, 213-221, (2010)). […]

B1: Wildtype bialaphos resistance (BAR) protein from Streptomyces hygroscopicus (enzyme)
chain: MSPERRPADIRRATEADMPAVCTIVNHYIETSTVNFRTEPQEPQEWTDDLVRLRERYPWLVAEVDGEVAGIAYAGPWKARNAYDWTAESTVYVSPRHQRTGLGSTLYTHLLKSLEAQGFKSVVAVIGLPNDPSVRMHEALGYAPRGMLRAAGFKHGNWHDVGFWQLDFSLPVPPRPVLPVTEI
notes: the entries describe its self-association into a homodimer in the crystal; Expressed in E. coli from pProEX Hta as 6xHis-BAR; Crystallised with acetyl-CoA, or with CoA and phosphinothricin; also called WT BAR; wild-type BAR
With B1, the binding result was “binds”.
